# Test results: patent US20210253718A1 (MODMAB THERAPEUTICS, published 2021)
# T1: FZD4 cysteine-rich domain (CRD), MYC-tagged and GPI-anchored on CHO cells (human, UniProt Q9ULV1 42-167, GPI anchor)
# T1 construct: also called FZD4 CRD; CHO-myc-FZDGPI; not shown: MYC tag and GPI anchor signal
# T1 sequence: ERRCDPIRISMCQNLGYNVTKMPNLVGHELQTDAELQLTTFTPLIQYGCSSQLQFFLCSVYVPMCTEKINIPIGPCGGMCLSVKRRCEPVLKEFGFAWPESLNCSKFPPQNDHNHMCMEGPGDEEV
# T2: FZD8 cysteine-rich domain (CRD), MYC-tagged and GPI-anchored on CHO cells (human, UniProt Q498S8 31-155 (rat entry), GPI anchor)
# T2 construct: also called FZD8 CRD; CHO-myc-FZDGPI; not shown: MYC tag and GPI anchor signal
# T2 sequence: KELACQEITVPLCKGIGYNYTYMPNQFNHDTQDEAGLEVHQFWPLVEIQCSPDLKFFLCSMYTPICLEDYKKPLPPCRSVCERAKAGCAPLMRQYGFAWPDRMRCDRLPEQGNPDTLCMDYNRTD
# T3: FZD5 cysteine-rich domain (CRD), MYC-tagged and GPI-anchored on CHO cells (human, UniProt Q13467 29-156, GPI anchor)
# T3 construct: also called FZD5 CRD; CHO-myc-FZDGPI; not shown: MYC tag and GPI anchor signal
# T3 sequence: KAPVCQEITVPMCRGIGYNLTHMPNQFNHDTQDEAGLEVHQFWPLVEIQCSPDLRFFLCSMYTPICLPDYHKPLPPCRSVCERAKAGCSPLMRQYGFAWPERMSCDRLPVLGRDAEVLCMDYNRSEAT
# T4: FZD6 cysteine-rich domain (CRD), MYC-tagged and GPI-anchored on CHO cells (human, UniProt O60353 20-146, GPI anchor)
# T4 construct: also called FZD6 CRD; CHO-myc-FZDGPI; not shown: MYC tag and GPI anchor signal
# T4 sequence: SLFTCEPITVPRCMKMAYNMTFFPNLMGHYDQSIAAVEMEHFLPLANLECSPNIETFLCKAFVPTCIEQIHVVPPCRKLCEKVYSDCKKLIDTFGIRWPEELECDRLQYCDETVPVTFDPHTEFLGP
# T5: FZD10 cysteine-rich domain (CRD), MYC-tagged and GPI-anchored on CHO cells (human, UniProt Q9ULW2 30-156, GPI anchor)
# T5 construct: also called FZD10 CRD; CHO-myc-FZDGPI; not shown: MYC tag and GPI anchor signal
# T5 sequence: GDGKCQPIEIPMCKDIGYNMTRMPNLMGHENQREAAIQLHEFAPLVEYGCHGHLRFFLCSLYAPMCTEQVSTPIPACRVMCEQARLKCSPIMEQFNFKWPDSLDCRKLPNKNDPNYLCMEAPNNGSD
# T6: FZD3 cysteine-rich domain (CRD), MYC-tagged and GPI-anchored on CHO cells (human, UniProt Q9NPG1 24-150, GPI anchor)
# T6 construct: domain: cysteine-rich domain (CRD); also called FZD3 CRD; CHO-myc-FZDGPI; not shown: MYC tag and GPI anchor signal
# T6 sequence (looked up): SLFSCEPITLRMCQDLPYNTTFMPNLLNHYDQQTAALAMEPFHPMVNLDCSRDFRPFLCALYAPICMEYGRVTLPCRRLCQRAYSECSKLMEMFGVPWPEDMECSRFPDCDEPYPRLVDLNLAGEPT
# T7: FZD9 cysteine-rich domain (CRD), MYC-tagged and GPI-anchored on CHO cells (human, UniProt O00144 35-161, GPI anchor)
# T7 construct: also called FZD9 CRD; CHO-myc-FZDGPI; not shown: MYC tag and GPI anchor signal
# T7 sequence: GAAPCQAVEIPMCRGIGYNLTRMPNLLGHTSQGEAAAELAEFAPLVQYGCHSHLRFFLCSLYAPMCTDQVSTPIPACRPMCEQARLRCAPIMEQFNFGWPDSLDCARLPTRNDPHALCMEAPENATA
# How the values were obtained:
# [1] = molecular target: FZD2 cysteine-rich domain (CRD), MYC-tagged and GPI-anchored on CHO cells (human, UniProt Q14332 35-161); assay: flow cytometry, CHO-CRD cells;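 further: flow cytometry of Fab binding to CHO cells overexpressing a Frizzled CRD, with binding defined as median fluorescence over twice that of CHO cells lacking any Frizzled CRD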
# Method: (§1) Binding was measured via flow cytometry analysis of CHO cells overexpressing CRD of FZD1, FZD2, FZD3, FZD4, FZD5, FZD6, FZD7, FZD8, FZD9 or FZD10. Median fluorescence values are shown.
# [2] = molecular target: T1, FZD4 cysteine-rich domain (CRD), …; assay: flow cytometry, CHO-CRD cells;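 further: flow cytometry of Fab binding to CHO cells overexpressing a Frizzled CRD, with binding defined as median fluorescence over twice that of CHO cells lacking any Frizzled CRD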
# Method: as §1
# [3] = molecular target: T2, FZD8 cysteine-rich domain (CRD), …; assay: flow cytometry, CHO-CRD cells;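 further: flow cytometry of Fab binding to CHO cells overexpressing a Frizzled CRD, with binding defined as median fluorescence over twice that of CHO cells lacking any Frizzled CRD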
# Method: as §1
# [4] = molecular target: T3, FZD5 cysteine-rich domain (CRD), …; assay: flow cytometry, CHO-CRD cells;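 further: flow cytometry of Fab binding to CHO cells overexpressing a Frizzled CRD, with binding defined as median fluorescence over twice that of CHO cells lacking any Frizzled CRD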
# Method: as §1
# [5] = molecular target: T4, FZD6 cysteine-rich domain (CRD), …; assay: flow cytometry, CHO-CRD cells
# Method: as §1
# [6] = molecular target: T5, FZD10 cysteine-rich domain (CRD), …; assay: flow cytometry, CHO-CRD cells
# Method: as §1
# [7] = molecular target: FZD1 cysteine-rich domain (CRD), MYC-tagged and GPI-anchored on CHO cells (human); assay: flow cytometry, CHO-CRD cells
# Method: as §1
# [8] = molecular target: T6, FZD3 cysteine-rich domain (CRD), …; assay: flow cytometry, CHO-CRD cells
# Method: as §1
# [9] = molecular target: FZD7 cysteine-rich domain (CRD), MYC-tagged and GPI-anchored on CHO cells (human, UniProt O75084 45-169); assay: flow cytometry, CHO-CRD cells
# Method: as §1
# [10] = molecular target: T7, FZD9 cysteine-rich domain (CRD), …; assay: flow cytometry, CHO-CRD cells
# Method: as §1
# [11] = molecular target: T1, FZD4 cysteine-rich domain (CRD), …; assay: immunofluorescence, CHO-CRD cells
# [12] = molecular target: T4, FZD6 cysteine-rich domain (CRD), …; assay: immunofluorescence, CHO-CRD cells
# [13] = molecular target: T5, FZD10 cysteine-rich domain (CRD), …; assay: immunofluorescence, CHO-CRD cells
# [14] = molecular target: T6, FZD3 cysteine-rich domain (CRD), …; assay: immunofluorescence, CHO-CRD cells
# [15] = molecular target: T7, FZD9 cysteine-rich domain (CRD), …; assay: immunofluorescence, CHO-CRD cells
median fluorescence [1],median fluorescence [2],median fluorescence [3],median fluorescence [4],median fluorescence [5],median fluorescence [6],median fluorescence [7],median fluorescence [8],median fluorescence [9],median fluorescence [10],binding result [11],binding result [12],binding result [13],binding result [14],binding result [15],Binder
18.9,5.52,8.9,31.9,3.59,3.72,40.3,4.61,18.4,3.82,no binding,no binding,no binding,no binding,no binding,"Fab-2914 (Fab, V domains shown, Fab; also called Fv-2914) VH: EVQLVESGGGLVQPGGSLRLSCAASGFNIYYSYMHWVRQAPGKGLEWVASIYPSSSSTSYADSVKGRFTISADTSKNTAYLQMNSLRAEDTAVYYCARGAMDYWGQGTLVTVSS VL: DIQMTQSPSSLSASVGDRVTITCRASQSVSSAVAWYQQKPGKAPKLLIYSASSLYSGVPSRFSGSRSGTDFTLTISSLQPEDFATYYCQQWYYGSLITFGQGTKVEIK"
22.1,5.99,,,3.37,3.92,36.9,5.05,40.7,3.92,no binding,no binding,no binding,no binding,no binding,"Fab-2915 (Fab, V domains shown, Fab; also called Fv-2915) VH: EVQLVESGGGLVQPGGSLRLSCAASGFNIYYYSMHWVRQAPGKGLEWVASIYSSYGYTSYADSVKGRFTISADTSKNTAYLQMNSLRAEDTAVYYCARGYHYYPYYSGLDYWGQGTLVTVSS VL: DIQMTQSPSSLSASVGDRVTITCRASQSVSSAVAWYQQKPGKAPKLLIYSASSLYSGVPSRFSGSRSGTDFTLTISSLQPEDFATYYCQQAYYHSLITFGQGTKVEIK"
,4.26,28.9,29.4,3.11,3.82,16.6,3.85,34.3,3.62,no binding,no binding,no binding,no binding,no binding,"Fab-2932 (Fab, V domains shown, Fab; also called Fv-2932) VH: EVQLVESGGGLVQPGGSLRLSCAASGFNISYSYMHWVRQAPGKGLEWVASIYSSYSSTSYADSVKGRFTISADTSKNTAYLQMNSLRAEDTAVYYCARGALDYWGQGTLVTVSS VL: DIQMTQSPSSLSASVGDRVTITCRASQSVSSAVAWYQQKPGKAPKLLIYSASSLYSGVPSRFSGSRSGTDFTLTISSLQPEDFATYYCQQWYGSFALITFGQGTKVEIK"
13.5,6.26,12.7,32,4.49,4.26,14.9,5.05,36.9,4.57,no binding,no binding,no binding,no binding,no binding,"Fab-2898 (Fab, V domains shown, Fab; also called Fv-2898) VH: EVQLVESGGGLVQPGGSLRLSCAASGFNIYSYSMHWVRQAPGKGLEWVASIYSSSGSTSYADSVKGRFTISADTSKNTAYLQMNSLRAEDTAVYYCARAVWGLDYWGQGTLVTVSS VL: DIQMTQSPSSLSASVGDRVTITCRASQSVSSAVAWYQQKPGKAPKLLIYSASSLYSGVPSRFSGSRSGTDFTLTISSLQPEDFATYYCQQWWGYYSLITFGQGTKVEIK"
14.1,5.57,,27.1,3.82,3.75,17.5,4.61,34.9,3.79,no binding,no binding,no binding,no binding,no binding,"Fab-2913 (Fab, V domains shown, Fab; also called Fv-2913) VH: EVQLVESGGGLVQPGGSLRLSCAASGFNISYSSIHWVRQAPGKGLEWVASIYPYSSSTSYADSVKGRFTISADTSKNTAYLQMNSLRAEDTAVYYCARYGYYGLDYWGQGTLVTVSS VL: DIQMTQSPSSLSASVGDRVTITCRASQSVSSAVAWYQQKPGKAPKLLIYSASSLYSGVPSRFSGSRSGTDFTLTISSLQPEDFATYYCQQWGVSHYLFTFGQGTKVEIK"
,5.09,10.9,32.8,3.62,3.85,17.1,4.1,47,3.25,no binding,no binding,no binding,no binding,no binding,"Fab-2901 (Fab, V domains shown, Fab; also called Fv-2901) VH: EVQLVESGGGLVQPGGSLRLSCAASGFNISYSYMHWVRQAPGKGLEWVASIYSYSSYTYYADSVKGRFTISADTSKNTAYLQMNSLRAEDTAVYYCARSWYYWSPSSGMDYWGQGTLVTVSS VL: DIQMTQSPSSLSASVGDRVTITCRASQSVSSAVAWYQQKPGKAPKLLIYSASSLYSGVPSRFSGSRSGTDFTLTISSLQPEDFATYYCQQGGFLITFGQGTKVEIK"
